Key:
[1] = biological target: AAV-2 capsid mutant D132N (rAAV-2 virion) (AAV-2) (UniProt P03135); assay: cell-based or functional assay
[2] = biological target: AAV-2 capsid mutant D377A (rAAV-2 virion) (AAV-2) (UniProt P03135); assay: cell-based or functional assay
[3] = biological target: AAV-2 capsid mutant E394A (rAAV-2 virion) (AAV-2) (UniProt P03135); assay: cell-based or functional assay
[4] = biological target: AAV-2 capsid mutant E394K (rAAV-2 virion) (AAV-2) (UniProt P03135); assay: cell-based or functional assay
[5] = biological target: AAV-2 capsid mutant H134Q (rAAV-2 virion) (AAV-2) (UniProt P03135); assay: cell-based or functional assay
[6] = biological target: AAV-2 capsid mutant H372K (rAAV-2 virion) (AAV-2) (UniProt P03135); assay: cell-based or functional assay
[7] = biological target: AAV-2 capsid mutant K390A (rAAV-2 virion) (AAV-2) (UniProt P03135); assay: cell-based or functional assay
[8] = biological target: AAV-2 capsid mutant K395A (rAAV-2 virion) (AAV-2) (UniProt P03135); assay: cell-based or functional assay
[9] = biological target: AAV-2 capsid mutant K407A (rAAV-2 virion) (AAV-2) (UniProt P03135); assay: cell-based or functional assay
[10] = biological target: AAV-2 capsid mutant N568A/V571A (rAAV-2 virion) (AAV-2) (UniProt P03135); assay: cell-based or functional assay
[11] = biological target: AAV-2 capsid mutant V571A (rAAV-2 virion) (AAV-2) (UniProt P03135); assay: cell-based or functional assay
[12] = biological target: AAV-2 with a wild-type capsid (rAAV-2 virion) (AAV-2) (UniProt P03135); assay: cell-based or functional assay
[13] = biological target: AAV-2 capsid mutant D132N (rAAV-2 virion) (AAV-2) (UniProt P03135); assay: all-human IgG ELISA, against wild type
[14] = biological target: AAV-2 capsid mutant D357E (rAAV-2 virion) (AAV-2) (UniProt P03135); assay: all-human IgG ELISA, against wild type
[15] = biological target: AAV-2 capsid mutant E393D (rAAV-2 virion) (AAV-2) (UniProt P03135); assay: all-human IgG ELISA, against wild type
[16] = biological target: AAV-2 capsid mutant E411A/T413A (rAAV-2 virion) (AAV-2) (UniProt P03135); assay: all-human IgG ELISA, against wild type
[17] = biological target: AAV-2 capsid mutant E411A/T413A/G449A/N450A (rAAV-2 virion) (AAV-2) (UniProt P03135); assay: all-human IgG ELISA, against wild type
[18] = biological target: AAV-2 capsid mutant G246A (rAAV-2 virion) (AAV-2) (UniProt P03135); assay: all-human IgG ELISA, against wild type
[19] = biological target: AAV-2 capsid mutant G449A (rAAV-2 virion) (AAV-2) (UniProt P03135); assay: all-human IgG ELISA, against wild type
[20] = biological target: AAV-2 capsid mutant G449A/N568A (rAAV-2 virion) (AAV-2) (UniProt P03135); assay: all-human IgG ELISA, against wild type
[21] = biological target: AAV-2 capsid mutant H134Q (rAAV-2 virion) (AAV-2) (UniProt P03135); assay: all-human IgG ELISA, against wild type
[22] = biological target: AAV-2 capsid mutant H372K (rAAV-2 virion) (AAV-2) (UniProt P03135); assay: all-human IgG ELISA, against wild type
[23] = biological target: AAV-2 capsid mutant H372Q (rAAV-2 virion) (AAV-2) (UniProt P03135); assay: all-human IgG ELISA, against wild type
[24] = biological target: AAV-2 capsid mutant N360H (rAAV-2 virion) (AAV-2) (UniProt P03135); assay: all-human IgG ELISA, against wild type
[25] = biological target: AAV-2 capsid mutant N568A (rAAV-2 virion) (AAV-2) (UniProt P03135); assay: all-human IgG ELISA, against wild type
[26] = biological target: AAV-2 capsid mutant N568A/V571A (rAAV-2 virion) (AAV-2) (UniProt P03135); assay: all-human IgG ELISA, against wild type
[27] = biological target: AAV-2 capsid mutant N568K (rAAV-2 virion) (AAV-2) (UniProt P03135); assay: all-human IgG ELISA, against wild type
[28] = biological target: AAV-2 capsid mutant R334A (rAAV-2 virion) (AAV-2) (UniProt P03135); assay: all-human IgG ELISA, against wild type
[29] = biological target: AAV-2 capsid mutant R334A/G449A (rAAV-2 virion) (AAV-2) (UniProt P03135); assay: all-human IgG ELISA, against wild type
[30] = biological target: AAV-2 capsid mutant R334A/G449A/N568A (rAAV-2 virion) (AAV-2) (UniProt P03135); assay: all-human IgG ELISA, against wild type
[31] = biological target: AAV-2 capsid mutant R334A/N568A (rAAV-2 virion) (AAV-2) (UniProt P03135); assay: all-human IgG ELISA, against wild type
[32] = biological target: AAV-2 capsid mutant S130A (rAAV-2 virion) (AAV-2) (UniProt P03135); assay: all-human IgG ELISA, against wild type
[33] = biological target: AAV-2 capsid mutant S130T (rAAV-2 virion) (AAV-2) (UniProt P03135); assay: all-human IgG ELISA, against wild type
[34] = biological target: AAV-2 capsid mutant T413K (rAAV-2 virion) (AAV-2) (UniProt P03135); assay: all-human IgG ELISA, against wild type
[35] = biological target: AAV-2 capsid mutant V571K (rAAV-2 virion) (AAV-2) (UniProt P03135); assay: all-human IgG ELISA, against wild type
[36] = biological target: AAV-2 with a wild-type capsid (rAAV-2 virion) (AAV-2) (UniProt P03135); assay: all-human IgG ELISA, virus needed for half maximal OD, against wild type
[37] = biological target: AAV-2 capsid mutant V571K (rAAV-2 virion) (AAV-2) (UniProt P03135); assay: A20/IgG sandwich ELISA: capture on coated Panglobulin, detection with A20-biotin; against wild type

**Q.** How did the Fold decrease in neutralizing titer [1] turn out when “purified human IgG from >10,000 donors (Panglobulin, ZLB Bioplasma AG)” was run?
**A.** 3.8 fold

**Q.** What about the Fold decrease in neutralizing titer [2] of the same substance?
**A.** 1.9 fold

**Q.** What about the Fold decrease in neutralizing titer [3] of the same substance?
**A.** 1.5 fold

**Q.** What about the Fold decrease in neutralizing titer [4] of the same substance?
**A.** 2.3 fold

**Q.** And the Fold decrease in neutralizing titer [5]?
**A.** 1.5 fold

**Q.** What about the Fold decrease in neutralizing titer [6] of the same substance?
**A.** 1.1 fold

**Q.** What about the Fold decrease in neutralizing titer [7] of the same substance?
**A.** 2.3 fold

**Q.** What about the Fold decrease in neutralizing titer [8] of the same substance?
**A.** 4.9 fold

**Q.** What about the Fold decrease in neutralizing titer [9] of the same substance?
**A.** 3.3 fold

**Q.** And the Fold decrease in neutralizing titer [10]?
**A.** 2.5 fold

**Q.** And the Fold decrease in neutralizing titer [11]?
**A.** 3.9 fold

**Q.** And the Fold decrease in neutralizing titer [12]?
**A.** 1 fold

**Q.** What about the Fold decrease in binding of human IgG [13] of the same substance?
**A.** 1 fold

**Q.** And the Fold decrease in binding of human IgG [14]?
**A.** 1 fold

**Q.** What about the Fold decrease in binding of human IgG [15] of the same substance?
**A.** 1 fold

**Q.** What about the Fold decrease in binding of human IgG [16] of the same substance?
**A.** 1 fold

**Q.** What about the Fold decrease in binding of human IgG [17] of the same substance?
**A.** 1 fold

**Q.** And the Fold decrease in binding of human IgG [18]?
**A.** 1 fold

**Q.** And the Fold decrease in binding of human IgG [19]?
**A.** 1 fold

**Q.** And the Fold decrease in binding of human IgG [20]?
**A.** 1 fold

**Q.** And the Fold decrease in binding of human IgG [21]?
**A.** 1 fold

**Q.** What about the Fold decrease in binding of human IgG [22] of the same substance?
**A.** 1 fold

**Q.** What about the Fold decrease in binding of human IgG [23] of the same substance?
**A.** 1 fold

**Q.** What about the Fold decrease in binding of human IgG [24] of the same substance?
**A.** 1 fold

**Q.** What about the Fold decrease in binding of human IgG [25] of the same substance?
**A.** 1 fold

**Q.** What about the Fold decrease in binding of human IgG [26] of the same substance?
**A.** 1 fold

**Q.** What about the Fold decrease in binding of human IgG [27] of the same substance?
**A.** 1 fold

**Q.** And the Fold decrease in binding of human IgG [28]?
**A.** 1 fold

**Q.** And the Fold decrease in binding of human IgG [29]?
**A.** 1 fold

**Q.** What about the Fold decrease in binding of human IgG [30] of the same substance?
**A.** 1 fold

**Q.** What about the Fold decrease in binding of human IgG [31] of the same substance?
**A.** 1 fold

**Q.** What about the Fold decrease in binding of human IgG [32] of the same substance?
**A.** 1 fold

**Q.** What about the Fold decrease in binding of human IgG [33] of the same substance?
**A.** 1 fold

**Q.** What about the Fold decrease in binding of human IgG [34] of the same substance?
**A.** 1 fold

**Q.** And the Fold decrease in binding of human IgG [35]?
**A.** 10 fold

**Q.** And the Fold decrease in binding of human IgG [36]?
**A.** 1 fold

**Q.** What about the fold reduction of binding [37] of the same substance?
**A.** 100 fold
